The values that follow come from patent US20140303084A1 (Biogen, published 2014).

Sequences and labels used below:
B1: KLTCLASyCWLF (peptide)
peptide: KLTCLAS[dY]CWLF
modifications: not fully specified (bridges); printed as KLTCLASyCWLF; cysteine pairing not given here
B2: KLTCLaSYCWLF (peptide)
peptide: KLTCL[dA]SYCWLF
modifications: not fully specified (bridges); printed as KLTCLaSYCWLF; cysteine pairing not given here
B3: rrapgkltclasycwlfwtgia (inverso) (peptide)
peptide: [dR][dR][dA][dP]G[dK][dL][dT][dC][dL][dA][dS][dY][dC][dW][dL][dF][dW][dT]G[dI][dA]
modifications: not fully specified; printed as rrapgkltclasycwlfwtgia (inverso); cysteine pairing not given here
B4: C(Acm)GGGGfpipR-PEG5-rRAPGKLTCLASYCWLFWTGIA (peptide)
peptide: C(Acm)GGGG[dF][pip]R[PEG5′][dR]RAPGKLTCLASYCWLFWTGIA
modifications: cysteine pairing not given here; reading uncertain; also: printed as C(Acm)GGGGfpipR-PEG5-rRAPGKLTCLASYCWLFWTGIA
B5: RRAPGKLT-Asp-LASY-Dab-WLFWTGIA-CONH2 (peptide)
peptide: RRAPGKLTDLASY[Dab]WLFWTGIA-NH2
modifications: N-terminus assumed
SMILES: CC[C@H](C)[C@H](NC(=O)CNC(=O)[C@@H](NC(=O)[C@H](Cc1c[nH]c2ccccc12)NC(=O)[C@H](Cc1ccccc1)NC(=O)[C@H](CC(C)C)NC(=O)[C@H](Cc1c[nH]c2ccccc12)NC(=O)[C@H](CCN)NC(=O)[C@H](Cc1ccc(O)cc1)NC(=O)[C@H](CO)NC(=O)[C@H](C)NC(=O)[C@H](CC(C)C)NC(=O)[C@H](CC(=O)O)NC(=O)[C@@H](NC(=O)[C@H](CC(C)C)NC(=O)[C@H](CCCCN)NC(=O)CNC(=O)[C@@H]1CCCN1C(=O)[C@H](C)NC(=O)[C@H](CCCNC(=N)N)NC(=O)[C@@H](N)CCCNC(=N)N)[C@@H](C)O)[C@@H](C)O)C(=O)N[C@@H](C)C(N)=O
B6: AIGTWFLWCYSALCTLKGPARR (retro) (peptide)
peptide: AIGTWFLWCYSALCTLKGPARR
modifications: not fully specified; printed as AIGTWFLWCYSALCTLKGPARR (retro); cysteine pairing not given here

Square brackets hold non-standard residues; d marks the D form. Primed or numbered codes have the meaning given here. Side chains are listed from the residue outwards. Ends that are not written are not given here. * marks the point of attachment. N‑PEG5kmaleimide = Cys side chain bound to N-PEG 5 kDa maleimide; Biotin = O=C1N[C@H]2[C@H](CS[C@H]2CCCCC(=O)*)N1; Succinimide(1-Et,3-yl) = CCN1C(=O)CC(*)C1=O; NMeT = CN[C@H](C(=O)O)[C@@H](C)O; NMeL = CN[C@@H](CC(C)C)C(=O)O; NMeK = CN[C@@H](CCCCN)C(=O)O; PEG4(3) = not defined here; NMeS = CN[C@@H](CO)C(=O)O; PEG12′ = not defined here; NMeA = CN[C@@H](C)C(=O)O; Orn = NCCC[C@H](N)C(=O)O; PEG2″ = not defined here; PEG4″ = PEG4 spacer unit; PEG5′ = not defined here; Dab = NCC[C@H](N)C(=O)O; pip = not defined here; PEG4′ = PEG4 spacer; Acm = CC(=O)NC* Bounds are passed on as bounds.

This assay addresses human Factor IXa (human, UniProt P00740 47-191; P00740 227-461). The experiment in a line: cell-based or functional assay.
In the case of B1, the “EC50 [µM], FXa generation assay” value is greater than 5 µM.
In the case of KAACLASACWLA, the “EC50 [µM], FXa generation assay” value is greater than 20 µM.
For the molecule SKQGRPISPDRRAAGKLTDLASY[Orn]WLFWTGIA (not fully specified; printed as SKQGRPISPDRRAAGKLT-Asp-LASY-Orn-WLFWTGIA) [SKQGRPISPDRRAAGKLT-Asp-LASY-Orn-WLFWTGIA], the “EC50 [µM], FXa generation assay” value was less than 0.5 µM.
As for C(Succinimide(1-Et,3-yl))[PEG4′]LVPR[PEG4′][dR]RAPGKLTCLASYCWLFWTGIA (cysteine pairing not given here) [C(N-ethylmaleimide)-PEG4-LVPR-PEG4-rRAPGKLTCLASYCWLFWTGIA], the “EC50 [µM], FXa generation assay” value was greater than 1 µM.
With [dK][NMeL]TCLASYCWLFWTGIA-NH2 (cysteine pairing not given here) [compound 10], the “EC50 [µM], FXa generation assay with hFIXa” value was less than 0.5 µM.
As to KATCLASYCWLF, the “EC50 [µM], FXa generation assay” value was less than 0.5 µM.
On the same count and under the same terms, the value for B2 was greater than 5 µM.
Consider [dK]LTCLASYCWLF (not fully specified; cysteine pairing not given here) [kLTCLASYCWLF], for which the “EC50 [µM], FXa generation assay” value was less than 0.5 µM.
With C(N‑PEG5kmaleimide)[PEG4′]SKQGRPISPD[dR]RAAGKLTCLASYCWLFWTGIA (cysteine pairing not given here) [C(N-PEG5kmaleimide)-PEG4-SKQGRPISPDrRAAGKLTCLASYCWLFWTGIA], the “EC50 [µM], FXa generation assay” value was greater than 1 µM.
On to KLTCLASYCWL[dF] (cysteine pairing not given here) [KLTCLASYCWLf], for which the “EC50 [µM], FXa generation assay” value was greater than 1 µM.
Consider KLTC[NMeL]ASYCWLF (cysteine pairing not given here) [KLTC-MeLeu-ASYCWLF], for which the “EC50 [µM], FXa generation assay” value is greater than 20 µM.
For the molecule [dA][dI]G[dT][dW][dF][dL][dW][dC][dY][dS][dA][dL][dC][dT][dL][dK]G[dP][dA][dR][dR] (cysteine pairing not given here; also: retro-inverso) [aigtwflwcysalctlkgparr (retro-inverso)], the “EC50 [µM], FXa generation assay” value was greater than 1 µM.
On the same count and under the same terms, in the case of B3 it was less than 0.5 µM; in that of RRRKLTCLASYCWLFRRR, greater than 1 µM.
Still for that read-out and setting: the value for KLTALASYCWLF was greater than 1 µM.
With KLTCLA[NMeS]YCWLF (cysteine pairing not given here) [KLTCLA-MeSer-YCWLF], the “EC50 [µM], FXa generation assay” value was greater than 20 µM.
On to [dR]RAPGKLTCLASYCWLFWTGIA[PEG4(3)]C(N‑PEG5k maleimide) (cysteine pairing not given here) [rRAPGKLTCLASYCWLFWTGIA-PEG4-C(N-PEG5k maleimide)], for which the “EC50 [µM], FXa generation assay” value was greater than 1 µM.
In the case of B4, the “EC50 [µM], FXa generation assay” value was greater than 1 µM.
Same read-out and setting: the value for KLTCLASY[dC]WLF (cysteine pairing not given here) [KLTCLASYcWLF] was greater than 1 µM; that for B5 was greater than 10 µM.
Same read-out and setting: the value for CGGGLVPRGGGRRAPGKLTDLASYKWLFWTGIA [CGGGLVPRGGG-RRAPGKLT-Asp-LASY-Lys-WLFWTGIA] was less than 0.5 µM.
The same measure, in the same setting: the value for KLACLASYCWLF was less than 0.5 µM; that for SKQGRPISPD[dR]RAAGKLTCLASYCWLFWTGIA[PEG4″]C(N‑PEG5k maleimide) (cysteine pairing not given here) [SKQGRPISPDrRAAGKLTCLASYCWLFWTGIA-PEG4-C(N-PEG5k maleimide)] was greater than 5 µM.
Regarding K[NMeL]TCLASYCWLF (cysteine pairing not given here) [K-MeLeu-TCLASYCWLF], the “EC50 [µM], FXa generation assay” value is less than 0.5 µM.
On the same count and under the same terms, the value for KKLTCLASYCWLF was less than 0.5 µM; that for KLTCL[NMeA]SYCWLF (cysteine pairing not given here) [KLTCL-MeAla-SYCWLF] was greater than 20 µM; that for ALTCLAAYCALF was greater than 1 µM.
The same measure, in the same setting: in the case of KLTCLASACWLF it was less than 0.5 µM; in that of ALTCLASYCWLF, greater than 1 µM; in that of C(N‑PEG5kmaleimide)[PEG4′]LVPR[PEG4′][dR]RAPGKLTCLASYCWLFWTGIA (cysteine pairing not given here) [C(N-PEG5kmaleimide)-PEG4-LVPR-PEG4-rRAPGKLTCLASYCWLFWTGIA], greater than 1 µM.
Consider KLTCLASYCALF, for which the “EC50 [µM], FXa generation assay” value was greater than 1 µM.
For the molecule CKTYFWK[dP]GNIMVTFC[PEG12′]K([PEG2″-Biotin])[PEG12′][dR]RAPGKLTCLASYCWLFWTGIA (cysteine pairing not given here) [CKTYFWKpGNIMVTFC-PEG12-Lys(PEG2-Biotin)-PEG12-rRAPGKLTCLASYCWLFWTGIA], the “EC50 [µM], FXa generation assay” value is greater than 20 µM.
As to KLTCLASYCWLA, the “EC50 [µM], FXa generation assay” value was less than 0.5 µM.
Same read-out and setting: in the case of C(PEG 5 kDa)GGGRRAPGKLTDLASYKWLFWTGIA (not fully specified; printed as C(PEG5k)GGG-RRAPGKLT-Asp-LASY-Lys-WLFWTGIA) [C(PEG5k)GGG-RRAPGKLT-Asp-LASY-Lys-WLFWTGIA] it was greater than 1 µM; in that of CGGGRRAPGKLTDLASYKWLFWTGIA [CGGG-RRAPGKLT-Asp-LASY-Lys-WLFWTGIA], less than 0.5 µM.
On the same count and under the same terms, the value for KLTCAASYCWLF was less than 0.5 µM; that for KLTCLASYAWLF was greater than 1 µM.
Same read-out and setting: in the case of B6 it was greater than 1 µM.
As for KKKKLTCLASYCWLFKKK, the “EC50 [µM], FXa generation assay” value was greater than 5 µM.
In the case of KLTCLA[dS]YCWLF (cysteine pairing not given here) [KLTCLAsYCWLF], the “EC50 [µM], FXa generation assay” value is greater than 1 µM.
On to KL[NMeT]CLASYCWLF (cysteine pairing not given here) [KL-MeThr-CLASYCWLF], for which the “EC50 [µM], FXa generation assay” value is less than 0.5 µM.
On the same count and under the same terms, in the case of [NMeK]LTCLASYCWLF (cysteine pairing not given here) [MeLys-LTCLASYCWLF] it was less than 0.5 µM.
